Results from publication PMC12342048, “Cleavage of Cartilage Oligomeric Matrix Protein (COMP) by ADAMTS4 generates a neoepitope associated with osteoarthritis and other forms of degenerative joint disease” (Matrix biology : journal of the International Society for …, 2024).

B1: Drosophila melanogaster S2-expressed human COMP (Cartilage Oligomeric Matrix Protein) (natural protein)
chain: not shown
modifications: N-linked glycans (shown by PNGase F)
notes: Cartilage Oligomeric Matrix Protein, human; the Drosophila BiP secretion signal is fused to Gly22 of COMP and cleaved off before secretion to give a native N terminus; numbers count on NP_000086.2 (precursor); on non-reducing SDS-PAGE a mixture of monomers to pentamers was seen; also called iCOMP; thrombospondin 5; source: Drosophila melanogaster Schneider 2 (S2) cells, purified from conditioned …
B2: fully cleaved N-terminal domain (NTD) of COMP ending at the QQS77 neoepitope (domain or fragment, human, UniProt P49747-1 21-77, looked up)
chain: QGQSPLGSDLGPQMLRELQETNAALQDVRELLRQQVREITFLKNTVMECDACGMQQS
notes: Cartilage Oligomeric Matrix Protein, human, N-terminal product of the cleavage at the S77-V78 bond; numbers count on NP_000086.2 (precursor); Made by proteolysis of m2; also called fully cleaved NTD pentamer; N-terminal cleavage fragment; source: hCOMP (520 nM, purified from Freestyle 293-F medium) digested with purified ADAMTS4 (12 nM), 2 h, 37 °C

Assays:
[1] = biological target: the molecule itself; experiment: non-reducing SDS-PAGE; purified COMP, 4 μg/lane, 4–12 % SDS-PAGE under non-reducing conditions, Coomassie Brilliant Blue staining; under reducing conditions (5 % β-mercaptoethanol) a monomer band at ~100 kDa
[2] = biological target: the molecule itself; experiment: non-reducing SDS-PAGE with immunoblot; hCOMP (520 nM) incubated with ADAMTS4 WT (12 nM) for 2 h at 37 °C in TNC-B; non-reducing SDS-PAGE, immunoblot with anti-QQS77 neoepitope antibody

Row | Protein | binding result [1] | stoichiometry N [2]
1 | B1 | binds | –
2 | B2 | – | 5
